Experiments:
[1] = target: T1, murine RAGE, full length (mouse, UniProt Q62151 23-402); assay: FACS, 293 cells infected with murine RAGE adenovirus
T1 construct: Expressed on 293 cells; also called mRAGE; 293-murine RAGE
T1 chain: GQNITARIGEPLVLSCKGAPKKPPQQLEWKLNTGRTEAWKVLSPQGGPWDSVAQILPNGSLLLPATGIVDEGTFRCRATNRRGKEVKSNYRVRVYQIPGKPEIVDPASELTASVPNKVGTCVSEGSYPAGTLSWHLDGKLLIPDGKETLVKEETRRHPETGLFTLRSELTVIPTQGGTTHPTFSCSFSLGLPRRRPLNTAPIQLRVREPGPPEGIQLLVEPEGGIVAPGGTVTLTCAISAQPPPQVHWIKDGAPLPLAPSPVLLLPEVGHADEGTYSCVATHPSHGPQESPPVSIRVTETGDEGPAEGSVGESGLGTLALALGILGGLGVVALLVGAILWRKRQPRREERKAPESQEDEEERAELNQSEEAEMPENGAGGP
Method: Human 293 cells were infected with the human and murine RAGE adenovirus. Infected cells were suspended in PBS containing 1% BSA at a density of 4×10⁴ cells/ml. Cells were incubated with 100 ul of sample (diluted immune sera, hybridoma supernatants or purified antibodies) for 30 min at 4° C. After washing, cells were incubated with PE-labeled goat, anti-mouse, IgG, F(ab′)₂ (DAKO Corporation GlostrupDenmark) for 30 min at 4° C. in the dark. Cell-associated fluorescence signals were measured by a FACScan flow cytofluorometer (Becton Dickinson) using 5000 cells per treatment. Propidium iodide was used to identify dead cells, which were excluded from the analysis.

[2] = target: T2, human RAGE-Fc fusion protein (human, UniProt Q15109 23-344); assay: ELISA, coated hRAGE-Fc
T2 construct: also called hRAGE-Fc; huRAGE-Fc; not shown: Fc domain of human IgG
Method: Antibodies were purified from hybridoma supernatants using standard procedures. Purified antibodies were evaluated for binding to soluble forms of RAGE with the use of ELISA. […] After washing and blocking with PBS containing 1% BSA and 0.05% Tween-20, 100 ul of sample (samples were in several forms: diluted immune serum, hybridoma supernatants, or purified antibodies, as indicated) was added and incubated for 1 hour at room temperature. The plates were washed with PBS, pH 7.2 and bound anti-RAGE antibodies were detected with the use of peroxidase-conjugated goat, anti-mouse IgG (H+L) (IgG) (Pierce, Rockford, Ill.) followed by incubation with the substrate TMB (BioFX Laboratories Owings Mills, Md. Laboratories). Absorbance values were determined at 450 nm in a spectrophotometer. The concentrations of monoclonal antibodies were determined with the use of peroxidase-labeled goat, anti-mouse IgG (Fcγ) (Pierce Rockford, Ill.) and a standard curve was generated by a purified, isotype-matched mouse IgG.

[3] = target: T3, murine RAGE-strep tag fusion protein (mouse, UniProt Q62151 23-343); assay: ELISA, mRAGE-strep
T3 construct: also called mRAGE-strep; mRAGE-SA
T3 chain: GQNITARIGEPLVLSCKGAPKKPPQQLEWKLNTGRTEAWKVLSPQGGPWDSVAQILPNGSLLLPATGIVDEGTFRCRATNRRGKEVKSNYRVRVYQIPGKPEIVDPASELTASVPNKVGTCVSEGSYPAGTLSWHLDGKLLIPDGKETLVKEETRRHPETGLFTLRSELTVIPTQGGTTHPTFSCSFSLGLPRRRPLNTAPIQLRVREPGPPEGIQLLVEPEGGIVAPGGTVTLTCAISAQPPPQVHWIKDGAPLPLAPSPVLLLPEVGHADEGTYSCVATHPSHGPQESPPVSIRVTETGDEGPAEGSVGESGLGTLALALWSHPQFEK

[4] = target: T4, baboon RAGE (baboon (Papio cyanocephalus), UniProt Q15109 23-404 (human entry)); assay: IHC, septic baboon lung, 1 µg/ml
T4 construct: On transfected 293 cells or endogenous in baboon lung sections; also called 293-baboon RAGE; RAGE in baboon lung
T4 chain: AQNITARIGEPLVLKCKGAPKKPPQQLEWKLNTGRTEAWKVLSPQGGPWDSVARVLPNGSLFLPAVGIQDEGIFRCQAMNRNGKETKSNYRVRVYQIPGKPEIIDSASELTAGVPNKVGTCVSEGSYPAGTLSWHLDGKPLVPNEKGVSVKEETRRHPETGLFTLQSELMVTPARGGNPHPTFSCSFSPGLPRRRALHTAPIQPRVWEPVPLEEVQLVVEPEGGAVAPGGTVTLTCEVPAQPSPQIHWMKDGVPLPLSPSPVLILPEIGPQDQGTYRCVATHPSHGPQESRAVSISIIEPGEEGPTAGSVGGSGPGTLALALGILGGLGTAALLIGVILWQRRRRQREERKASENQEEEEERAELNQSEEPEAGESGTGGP
Method: (§1) Immunohistochemistry for RAGE lung tissues isolated from baboon, cynomolgus monkey, rabbit or Chinese Hamster Ovary cells over-expressing human RAGE or control CHO cells were performed using standard techniques. RAGE antibodies and rat IgG2b isotype control or mouse isotype control were used at […]. […] Following detection with HRP and Alexa Fluor 594, Alexa Fluor 488 or anti-biotin conjugated with FITC, sections were also stained with 4′-6-Diamidino-2-phenylindole (DAPI).
(§2) CHO cells stable transfected with an expression vector that expresses DNA encoding hRAGE is used as a positive control.

[5] = target: T5, human RAGE, full length (human, UniProt Q15109 23-404); assay: IHC, CHO cells expressing hRAGE, 1 µg/ml
T5 construct: Expressed on 293 or CHO cells, or endogenous in human lung sections; also called hRAGE; cell-surface hRAGE
Method: as §1, §2

[6] = target: T6, cynomolgus monkey RAGE (cynomolgus monkey (Macaca fascicularis), UniProt Q15109 23-404 (human entry)); assay: IHC, normal monkey lung, 5 µg/ml
T6 construct: On transfected 293 cells or endogenous in monkey lung sections; also called 293-cyno monkey RAGE; RAGE in monkey lung
T6 chain: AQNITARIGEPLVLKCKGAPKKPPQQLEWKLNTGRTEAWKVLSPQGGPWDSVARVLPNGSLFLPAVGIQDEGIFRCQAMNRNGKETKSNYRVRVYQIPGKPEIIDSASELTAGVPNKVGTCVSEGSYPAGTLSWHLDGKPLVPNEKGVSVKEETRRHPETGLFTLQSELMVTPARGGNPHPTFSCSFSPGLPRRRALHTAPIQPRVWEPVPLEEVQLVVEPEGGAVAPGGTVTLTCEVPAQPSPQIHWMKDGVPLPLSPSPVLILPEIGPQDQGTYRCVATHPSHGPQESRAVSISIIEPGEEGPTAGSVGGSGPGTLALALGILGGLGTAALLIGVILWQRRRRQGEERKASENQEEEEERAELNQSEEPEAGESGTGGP
Method: as §1, §2

Measured: binding result

B1: XT-H1 (antibody, mouse IgG1, V domains shown)
VH: QVQLKESGPGLVAPSQSLSITCTISGFSITSYGVHWVRQPPGKGLEWLVVIWSDGRTTYNSTLKSRLSISKDNSKSQVFLKMNSLQTDDTAMYYCVRHGGYFPYAMDYWGQGTSVTVSS
VL: DIQMTQSPSSLSTSLGGKVTITCKASQDINKFIAWYQHTPGKGPRLFIYYTSTLQPGIPSRFSGNGSGRDYSFSISNLEPEDIATYYCLQYDNMYTFGGGTKLEIK
notes: also called 1hRAGEP3/6; murine anti-huRAGE monoclonal antibody XT-H1
binds: all assays above
